This assay concerns the target PKS12Δ1 E20S mutant protein (M. tuberculosis H37Rv) (UniProt I6XD69).

Substance “PKS12Δ1 E20S mutant protein (from UniProt I6XD69 1-4151) (enzyme)” returned a catalytic turnover (fold decrease) of 5 and a product formation by quantitative radio-HPLC (fold decrease) greater than 5.

Source of the values: paper PMC2443190, “Novel Intermolecular Iterative Mechanism for Biosynthesis of Mycoketide Catalyzed by a Bimodular Polyketide Synthase” (PLoS Biology, 2008).
